From patent US20080213270

Test system: Neurotensin (1-13)

neurolysin (NLN), mouse mast cell-associated
NT degradation by A23187-activated BMCMCs transduced with shRNA (percentage of NT remaining): mMC-CPA- or NL-shRNA-transduced BMCMCs also exhibited significantly reduced ability to degrade NT after activation with A23187 (5 uM) | NT degradation by membrane or cytosol preparations of mouse BMCMCs (percentage of NT remaining): either membrane or cytosol preparations of mouse BMCMCs degraded NT, an ability that was almost completely inhibited by the NLN inhibitor, Pro-Ile (10 mM)
